Numbered stars: 1 amine (or outer) side, 2 acyl side, 3 side chain; on linkers, the order of the positions; unused ones are H or OH. Bridge positions count the residues as written; N and C are the ends. Ends that are not written are not given here. TBMB = c1c(C[*:1])cc(C[*:3])cc1C[*:2]
Target: T1, biotinylated human plasma Kallikrein (human, UniProt P03952 20-638, biotinylated)
T1 construct: also called Biotinylated hPK
Assay: phage binding assay, signal:background
Experimental: Library transformant colonies, or selection output colonies, were picked and grown as individual cultures in 2TY broth containing selective antibiotic. The picked colonies were DNA-sequenced using a QIAgen PyroMark Q96 DNA sequencer to reveal the amino-acid substitution present in each clone, and were assayed for human plasma Kallikrein binding as follows. The phage-containing supernatant was harvested from the culture and phage were cyclised with tris bromomethyl benzene(TBMB) based on the methods of Heinis et al (Nature Chemical Biology vol. 5 pp 502-507 (2009)). The purified phage from this process were assayed for binding to biotinylated human plasma Kallikrein using a homogeneous plate-based binding assay; assay read-out measured on a BMG Labtech Pherastar FS plate reader. The quantitative binding data from duplicate assay samples was averaged (mean) and expressed as signal:background. […] The assay data was correlated with the peptide sequences.
Selections against human plasma Kallikrein were performed with this library in order to study the non-WPAR (SEQ ID NO: 18) determinants of Kallikrein binding, and to isolate the optimal WPAR (SEQ ID NO: 18)-containing peptide sequence.

T1 sequence (P03952 20-638 limits assumed): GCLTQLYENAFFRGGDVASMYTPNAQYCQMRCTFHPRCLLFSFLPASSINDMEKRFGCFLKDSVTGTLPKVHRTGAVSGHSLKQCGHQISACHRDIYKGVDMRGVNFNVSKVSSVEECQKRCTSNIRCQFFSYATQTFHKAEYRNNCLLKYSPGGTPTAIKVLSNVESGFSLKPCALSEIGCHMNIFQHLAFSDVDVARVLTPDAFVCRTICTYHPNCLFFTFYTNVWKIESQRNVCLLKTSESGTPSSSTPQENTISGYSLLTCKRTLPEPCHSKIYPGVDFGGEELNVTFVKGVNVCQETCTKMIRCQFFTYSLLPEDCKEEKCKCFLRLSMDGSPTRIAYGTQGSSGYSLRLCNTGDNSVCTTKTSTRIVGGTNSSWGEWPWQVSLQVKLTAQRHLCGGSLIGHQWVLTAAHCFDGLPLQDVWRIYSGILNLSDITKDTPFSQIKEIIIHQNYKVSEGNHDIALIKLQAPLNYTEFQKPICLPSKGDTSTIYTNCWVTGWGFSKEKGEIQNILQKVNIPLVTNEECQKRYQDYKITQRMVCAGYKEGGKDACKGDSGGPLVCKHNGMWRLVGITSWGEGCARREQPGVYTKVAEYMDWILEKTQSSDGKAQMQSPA

Row | Binding assay signal | Binder
1 | 73 | CTWPARCLHQDLC (linker 1-7-13 via TBMB (inferred)) [SEQ ID NO 136]
2 | 73 | CQWPARCMHQELC (linker 1-7-13 via TBMB (inferred)) [SEQ ID NO 135]
3 | 116 | CNWPARCTHQDLC (linker 1-7-13 via TBMB) [SEQ ID NO 115]
4 | 88 | CTWPARCTHTDLC (linker 1-7-13 via TBMB (inferred)) [SEQ ID NO 123]
5 | 83 | CSWPARCLHTDLC (linker 1-7-13 via TBMB (inferred)) [SEQ ID NO 126]
6 | 59 | CSWPARCTHSDLC (linker 1-7-13 via TBMB) [SEQ ID NO 161]
7 | 107 | CPWPARCTHQDLC (linker 1-7-13 via TBMB) [SEQ ID NO 117]
8 | 69 | CPWPARCTHQNLC (linker 1-7-13 via TBMB (inferred)) [SEQ ID NO 143]
9 | 70 | CPWPARCTHTDLC (linker 1-7-13 via TBMB (inferred)) [SEQ ID NO 141]
10 | 93 | CSWPARCTHDDLC (linker 1-7-13 via TBMB (inferred)) [SEQ ID NO 119]
11 | 58 | CPWPARCLHTDLC (linker 1-7-13 via TBMB) [SEQ ID NO 163]
12 | 59 | CSWPARCLHDDLC (linker 1-7-13 via TBMB) [SEQ ID NO 162]
13 | 79 | CMWPARCMHQDLC (linker 1-7-13 via TBMB (inferred)) [SEQ ID NO 129]
14 | 66 | CAWPARCTHTHLC (linker 1-7-13 via TBMB (inferred)) [SEQ ID NO 149]
15 | 74 | CQWPARCTHSDLC (linker 1-7-13 via TBMB (inferred)) [SEQ ID NO 132]
16 | 68 | CSWPARCIHQDLC (linker 1-7-13 via TBMB (inferred)) [SEQ ID NO 147]
17 | 80 | CAWPARCTHTDFC (linker 1-7-13 via TBMB (inferred)) [SEQ ID NO 128]
18 | 68 | CSWPARCLHTELC (linker 1-7-13 via TBMB (inferred)) [SEQ ID NO 146]
19 | 71 | CTWPARCTHADLC (linker 1-7-13 via TBMB (inferred)) [SEQ ID NO 139]
20 | 84 | CAWPARCLHDDLC (linker 1-7-13 via TBMB (inferred)) [SEQ ID NO 125]
21 | 72 | CSWPARCTHSHLC (linker 1-7-13 via TBMB (inferred)) [SEQ ID NO 137]
22 | 100 | CSWPARCTHADLC (linker 1-7-13 via TBMB) [SEQ ID NO 118]
23 | 71 | CVWPARCTHQDLC (linker 1-7-13 via TBMB (inferred)) [SEQ ID NO 138]
24 | 73 | CRWPARCTHQDLC (linker 1-7-13 via TBMB (inferred)) [SEQ ID NO 134]
25 | 85 | CHWPARCTHQELC (linker 1-7-13 via TBMB (inferred)) [SEQ ID NO 124]

Row | Binding assay signal | Binder
26 | 60 | CEWPARCLHTDLC (linker 1-7-13 via TBMB (inferred)) [SEQ ID NO 156]
27 | 79 | CAWPARCTHADLC (linker 1-7-13 via TBMB (inferred)) [SEQ ID NO 130]
28 | 91 | CQWPARCLHTDLC (linker 1-7-13 via TBMB (inferred)) [SEQ ID NO 121]
29 | 70 | CAWPARCTHYDLC (linker 1-7-13 via TBMB (inferred)) [SEQ ID NO 142]
30 | 90 | CLWPARCTHQDLC (linker 1-7-13 via TBMB (inferred)) [SEQ ID NO 122]
31 | 92 | CAWPARCTHTDLC (linker 1-7-13 via TBMB (inferred)) [SEQ ID NO 120]
32 | 69 | CSWPARCTHTELC (linker 1-7-13 via TBMB (inferred)) [SEQ ID NO 144]
33 | 71 | CHWPARCMHQDLC (linker 1-7-13 via TBMB (inferred)) [SEQ ID NO 140]
34 | 110 | CHWPARCTHQDLC (linker 1-7-13 via TBMB) [SEQ ID NO 116]
35 | 69 | CAWPARCMHDDLC (linker 1-7-13 via TBMB (inferred)) [SEQ ID NO 145]
36 | 74 | CLWPARCTHADLC (linker 1-7-13 via TBMB (inferred)) [SEQ ID NO 133]
37 | 67 | CTWPARCTHTDMC (linker 1-7-13 via TBMB (inferred)) [SEQ ID NO 148]
38 | 82 | CAWPARCTHVDLC (linker 1-7-13 via TBMB (inferred)) [SEQ ID NO 127]
39 | 59 | CRWPARCTHTDLC (linker 1-7-13 via TBMB) [SEQ ID NO 159]
40 | 59 | CSWPARCTHAEMC (linker 1-7-13 via TBMB (inferred)) [SEQ ID NO 158]
41 | 59 | CTWPARCTHQAFC (linker 1-7-13 via TBMB) [SEQ ID NO 160]
42 | 61 | CSWPARCVHQDMC (linker 1-7-13 via TBMB (inferred)) [SEQ ID NO 155]
43 | 61 | CTWPARCLHQHMC (linker 1-7-13 via TBMB (inferred)) [SEQ ID NO 154]
44 | 66 | CAWPARCLHADMC (linker 1-7-13 via TBMB (inferred)) [SEQ ID NO 150]
45 | 75 | CQWPARCMHQDMC (linker 1-7-13 via TBMB (inferred)) [SEQ ID NO 131]
46 | 59 | CLWPARCLTTELC (linker 1-7-13 via TBMB (inferred)) [SEQ ID NO 157]
47 | 61 | CAWPARCTHQTMC (linker 1-7-13 via TBMB (inferred)) [SEQ ID NO 153]
48 | 63 | CAWPARCLHQDWC (linker 1-7-13 via TBMB (inferred)) [SEQ ID NO 151]
49 | 63 | CDWPARCMHQEFC (linker 1-7-13 via TBMB (inferred)) [SEQ ID NO 152]
